This is an account of results in patent publication US20100278818A1.

The target in assay [1] is Tn antigen (GalNAc alpha-O-Ser/Thr of a polypeptide chain) at the surface of human tumor cells. The assay can be described thus: flow cytometry, biotinylated IVIG control and SA-PE on EpCam+CD45- ovarian cancer cells from patient ascitis.
For assay [2] the target is unchanged. The assay can be described thus: immunohistochemistry, biotinylated chi-83D4 and avidin-HRP on 3 primary ovarian serous adenocarcinomas.
Assay [3] shares this target. The assay can be described thus: flow cytometry, biotinylated chi-83D4 and SA-PE on EpCam+CD45- ovarian cancer cells from patient ascitis (one representative patient). On the technique in general: Flow cytometry measures light scatter and fluorescence of single cells or particles in a stream.
The target is the same in assay [4]. The assay can be described thus: flow cytometry MFI against antibody concentration on Jurkat cells. Also noted: unit not given here.
Assay [5] shares this target. The assay can be described thus: flow cytometry MFI against antibody concentration on Shin3 cells. Set-up: unit not given here.
Assay [6] deals with Tn antigen (GalNAc alpha-O-Ser/Thr of a polypeptide chain) at the plasma membrane of murine tumor cell lines. The assay can be described thus: flow cytometry MFI against antibody concentration on TA3HA cells.
In assay [7] the target is Tn antigen (GalNAc alpha-O-Ser/Thr of a polypeptide chain) at the surface of human tumor cells. The assay can be described thus: flow cytometry, biotinylated chi-83D4 preincubated with GalNac (1 M), SA-PE, EpCam+CD45- ovarian cancer cells from patient ascitis.

Molecule “Intravenous immunoglobulin (Tegeline, IVIG) (antibody)” had an MFI in assay [1] of 1810.

B1: chimeric anti-Tn (chi-83D4) mAb (antibody, human IgG1, kappa, V domains shown)
VH: QVQLQQSDAELVKPGASVKISCKASGYTFTDHAIHWVKQKPEQGLEWIGYFSPGNGDIKYNEKFKGKATLTADKSSSTAYMQLNSLTSEDSAVYFCKRSYGNYDYWGQGTTLTVSS
VL: DILLTQSPAILSVSPGERVSFSCRASQNIGTSIHWYQQRTNGSPRLLIKYASESVSGIPSRFSGSGSGTDFTLSINSVESEDIADYYCQHTNSWPTTFGGGTKLEIKR
Take B1: the percent of tumor cells labeled in assay [2] fell in the range of 70 to 80%. For the same molecule, the MFI worked out at 4490 in assay [3] and 1830 in assay [7]. Moreover, the saturating concentration in assay [4] amounted to 70; in assay [5], 20; in assay [6], 50 mg/mL.
